Our source for the fold change of affinity and fold change of affinity for CD3 values is patent US20210388087A1.

Assay [1] deals with Human CD3eg linker (human). The assay can be described thus: SPR; fold vs parent H183/L072.
A further assay has as its target Human CD137 ECD (human). The assay can be described thus: Biacore SPR, vs parent H183/L072. (SPR reads the build-up and loss of mass on a sensor chip optically.)
Assay [2] has as its target Human CD3eg linker (human). Put plainly: affinity relative to template H183/L072, single-mutation scan.

Chain of Human CD137 ECD (human) (chain, as listed by the source limits assumed): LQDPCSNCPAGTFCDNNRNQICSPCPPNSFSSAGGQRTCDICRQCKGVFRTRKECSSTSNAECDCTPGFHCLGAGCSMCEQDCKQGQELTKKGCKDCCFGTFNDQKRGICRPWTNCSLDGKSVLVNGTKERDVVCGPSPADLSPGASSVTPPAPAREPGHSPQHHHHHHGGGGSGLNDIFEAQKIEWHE
Chain of Human CD3eg linker (human) (chain, as listed by the source limits assumed): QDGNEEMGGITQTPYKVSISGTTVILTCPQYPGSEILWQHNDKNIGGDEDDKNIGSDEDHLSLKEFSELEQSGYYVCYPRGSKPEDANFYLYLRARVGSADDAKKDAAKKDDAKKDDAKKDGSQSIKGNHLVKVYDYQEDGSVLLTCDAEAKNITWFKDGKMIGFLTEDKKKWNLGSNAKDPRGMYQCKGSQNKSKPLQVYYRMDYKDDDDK

B1: H183/L072 VL L27bR (antibody, name in Kabat numbering, V domains shown)
VH: QVQLVESGGGLVQPGRSLRLSCAASGFTFSNAWMHWVRQAPGKGLEWVAQIKDKGNAYAAYYAPSVKGRFTISRDDSKNSIYLQMNSLKTEDTAVYYCHYVHYASASTVLPAFGVDAWGQGTTVTVSS
VL: DIVMTQSPLSLPVTPGEPASISCQASQERVHMNRNTYLHWYQQKPGQAPRLLIYKVSNRFPGVPDRFSGSGSGTDFTLKISRVEAEDVGVYYCAQGTSVPFTFGQGTKLEIK
Take B1: the fold change of affinity (in assay [1]; with Human CD137 ECD (human)) was 0 fold throughout.

B2: H183/L072 VL H34A (antibody, name in Kabat numbering, V domains shown)
VH: QVQLVESGGGLVQPGRSLRLSCAASGFTFSNAWMHWVRQAPGKGLEWVAQIKDKGNAYAAYYAPSVKGRFTISRDDSKNSIYLQMNSLKTEDTAVYYCHYVHYASASTVLPAFGVDAWGQGTTVTVSS
VL: DIVMTQSPLSLPVTPGEPASISCQASQELVHMNRNTYLAWYQQKPGQAPRLLIYKVSNRFPGVPDRFSGSGSGTDFTLKISRVEAEDVGVYYCAQGTSVPFTFGQGTKLEIK
In the case of B2, the fold change of affinity in the assay with Human CD137 ECD (human) stood at 0 fold.

B3: H183/L072 with P95Y (Kabat) in VL dBBDu072L (antibody, name in Kabat numbering, V domains shown)
VH: QVQLVESGGGLVQPGRSLRLSCAASGFTFSNAWMHWVRQAPGKGLEWVAQIKDKGNAYAAYYAPSVKGRFTISRDDSKNSIYLQMNSLKTEDTAVYYCHYVHYASASTVLPAFGVDAWGQGTTVTVSS
VL: DIVMTQSPLSLPVTPGEPASISCQASQELVHMNRNTYLHWYQQKPGQAPRLLIYKVSNRFPGVPDRFSGSGSGTDFTLKISRVEAEDVGVYYCAQGTSVYFTFGQGTKLEIK
For the molecule B3, the fold change of affinity for CD3 in assay [2] was 0 fold.

B4: H183/L072 VL Y32R (antibody, name in Kabat numbering, V domains shown)
VH: QVQLVESGGGLVQPGRSLRLSCAASGFTFSNAWMHWVRQAPGKGLEWVAQIKDKGNAYAAYYAPSVKGRFTISRDDSKNSIYLQMNSLKTEDTAVYYCHYVHYASASTVLPAFGVDAWGQGTTVTVSS
VL: DIVMTQSPLSLPVTPGEPASISCQASQELVHMNRNTRLHWYQQKPGQAPRLLIYKVSNRFPGVPDRFSGSGSGTDFTLKISRVEAEDVGVYYCAQGTSVPFTFGQGTKLEIK
On to B4, for which the fold change of affinity (in assay [1]; with Human CD137 ECD (human)) was 0 fold each time.

B5: H183/L072 with K50Y (Kabat) in VL dBBDu072L (antibody, name in Kabat numbering, V domains shown)
VH: QVQLVESGGGLVQPGRSLRLSCAASGFTFSNAWMHWVRQAPGKGLEWVAQIKDKGNAYAAYYAPSVKGRFTISRDDSKNSIYLQMNSLKTEDTAVYYCHYVHYASASTVLPAFGVDAWGQGTTVTVSS
VL: DIVMTQSPLSLPVTPGEPASISCQASQELVHMNRNTYLHWYQQKPGQAPRLLIYYVSNRFPGVPDRFSGSGSGTDFTLKISRVEAEDVGVYYCAQGTSVPFTFGQGTKLEIK
In the case of B5, the fold change of affinity for CD3 in assay [2] came to 0 fold.

B6: H183/L072 VL L33R (antibody, name in Kabat numbering, V domains shown)
VH: QVQLVESGGGLVQPGRSLRLSCAASGFTFSNAWMHWVRQAPGKGLEWVAQIKDKGNAYAAYYAPSVKGRFTISRDDSKNSIYLQMNSLKTEDTAVYYCHYVHYASASTVLPAFGVDAWGQGTTVTVSS
VL: DIVMTQSPLSLPVTPGEPASISCQASQELVHMNRNTYRHWYQQKPGQAPRLLIYKVSNRFPGVPDRFSGSGSGTDFTLKISRVEAEDVGVYYCAQGTSVPFTFGQGTKLEIK
For the molecule B6, the fold change of affinity (in assay [1]; in the assay with Human CD137 ECD (human)) was 0 fold in each case.

B7: H183/L072 with G91Y (Kabat) in VL dBBDu072L (antibody, name in Kabat numbering, V domains shown)
VH: QVQLVESGGGLVQPGRSLRLSCAASGFTFSNAWMHWVRQAPGKGLEWVAQIKDKGNAYAAYYAPSVKGRFTISRDDSKNSIYLQMNSLKTEDTAVYYCHYVHYASASTVLPAFGVDAWGQGTTVTVSS
VL: DIVMTQSPLSLPVTPGEPASISCQASQELVHMNRNTYLHWYQQKPGQAPRLLIYKVSNRFPGVPDRFSGSGSGTDFTLKISRVEAEDVGVYYCAQYTSVPFTFGQGTKLEIK
B7: the fold change of affinity for CD3 in assay [2] came out at 0 fold.

B8: H183/L072 with V51Y (Kabat) in VL dBBDu072L (antibody, name in Kabat numbering, V domains shown)
VH: QVQLVESGGGLVQPGRSLRLSCAASGFTFSNAWMHWVRQAPGKGLEWVAQIKDKGNAYAAYYAPSVKGRFTISRDDSKNSIYLQMNSLKTEDTAVYYCHYVHYASASTVLPAFGVDAWGQGTTVTVSS
VL: DIVMTQSPLSLPVTPGEPASISCQASQELVHMNRNTYLHWYQQKPGQAPRLLIYKYSNRFPGVPDRFSGSGSGTDFTLKISRVEAEDVGVYYCAQGTSVPFTFGQGTKLEIK
Take B8: the fold change of affinity for CD3 in assay [2] was 0 fold.

B9: H183/L072 VL L27bY (antibody, name in Kabat numbering, V domains shown)
VH: QVQLVESGGGLVQPGRSLRLSCAASGFTFSNAWMHWVRQAPGKGLEWVAQIKDKGNAYAAYYAPSVKGRFTISRDDSKNSIYLQMNSLKTEDTAVYYCHYVHYASASTVLPAFGVDAWGQGTTVTVSS
VL: DIVMTQSPLSLPVTPGEPASISCQASQEYVHMNRNTYLHWYQQKPGQAPRLLIYKVSNRFPGVPDRFSGSGSGTDFTLKISRVEAEDVGVYYCAQGTSVPFTFGQGTKLEIK
Consider B9, for which the fold change of affinity (in assay [1]; with Human CD137 ECD (human)) was 0 fold in each case.

B10: H183/L072 VL H34Y (antibody, name in Kabat numbering, V domains shown)
VH: QVQLVESGGGLVQPGRSLRLSCAASGFTFSNAWMHWVRQAPGKGLEWVAQIKDKGNAYAAYYAPSVKGRFTISRDDSKNSIYLQMNSLKTEDTAVYYCHYVHYASASTVLPAFGVDAWGQGTTVTVSS
VL: DIVMTQSPLSLPVTPGEPASISCQASQELVHMNRNTYLYWYQQKPGQAPRLLIYKVSNRFPGVPDRFSGSGSGTDFTLKISRVEAEDVGVYYCAQGTSVPFTFGQGTKLEIK
Regarding B10, the fold change of affinity (in assay [1]; with Human CD137 ECD (human)) was 0 fold in each case.

B11: H183/L072 VL H34F (antibody, name in Kabat numbering, V domains shown)
VH: QVQLVESGGGLVQPGRSLRLSCAASGFTFSNAWMHWVRQAPGKGLEWVAQIKDKGNAYAAYYAPSVKGRFTISRDDSKNSIYLQMNSLKTEDTAVYYCHYVHYASASTVLPAFGVDAWGQGTTVTVSS
VL: DIVMTQSPLSLPVTPGEPASISCQASQELVHMNRNTYLFWYQQKPGQAPRLLIYKVSNRFPGVPDRFSGSGSGTDFTLKISRVEAEDVGVYYCAQGTSVPFTFGQGTKLEIK
On to B11, for which the fold change of affinity (in assay [1]; in the assay with Human CD137 ECD (human)) was 0 fold each time.

B12: H183/L072 VL A25Y (antibody, name in Kabat numbering, V domains shown)
VH: QVQLVESGGGLVQPGRSLRLSCAASGFTFSNAWMHWVRQAPGKGLEWVAQIKDKGNAYAAYYAPSVKGRFTISRDDSKNSIYLQMNSLKTEDTAVYYCHYVHYASASTVLPAFGVDAWGQGTTVTVSS
VL: DIVMTQSPLSLPVTPGEPASISCQYSQELVHMNRNTYLHWYQQKPGQAPRLLIYKVSNRFPGVPDRFSGSGSGTDFTLKISRVEAEDVGVYYCAQGTSVPFTFGQGTKLEIK
On to B12, for which the fold change of affinity (in assay [1]; in the assay with Human CD137 ECD (human)) was 0 fold throughout.

B13: H183/L072 VL A25W (antibody, name in Kabat numbering, V domains shown)
VH: QVQLVESGGGLVQPGRSLRLSCAASGFTFSNAWMHWVRQAPGKGLEWVAQIKDKGNAYAAYYAPSVKGRFTISRDDSKNSIYLQMNSLKTEDTAVYYCHYVHYASASTVLPAFGVDAWGQGTTVTVSS
VL: DIVMTQSPLSLPVTPGEPASISCQWSQELVHMNRNTYLHWYQQKPGQAPRLLIYKVSNRFPGVPDRFSGSGSGTDFTLKISRVEAEDVGVYYCAQGTSVPFTFGQGTKLEIK
With B13, the fold change of affinity (in assay [1]; with Human CD137 ECD (human)) was 0 fold throughout.

B14: H183/L072 VL H34R (antibody, name in Kabat numbering, V domains shown)
VH: QVQLVESGGGLVQPGRSLRLSCAASGFTFSNAWMHWVRQAPGKGLEWVAQIKDKGNAYAAYYAPSVKGRFTISRDDSKNSIYLQMNSLKTEDTAVYYCHYVHYASASTVLPAFGVDAWGQGTTVTVSS
VL: DIVMTQSPLSLPVTPGEPASISCQASQELVHMNRNTYLRWYQQKPGQAPRLLIYKVSNRFPGVPDRFSGSGSGTDFTLKISRVEAEDVGVYYCAQGTSVPFTFGQGTKLEIK
In the case of B14, the fold change of affinity (in assay [1]; with Human CD137 ECD (human)) was 0 fold throughout.

B15: H183/L072 with Q90Y (Kabat) in VL dBBDu072L (antibody, name in Kabat numbering, V domains shown)
VH: QVQLVESGGGLVQPGRSLRLSCAASGFTFSNAWMHWVRQAPGKGLEWVAQIKDKGNAYAAYYAPSVKGRFTISRDDSKNSIYLQMNSLKTEDTAVYYCHYVHYASASTVLPAFGVDAWGQGTTVTVSS
VL: DIVMTQSPLSLPVTPGEPASISCQASQELVHMNRNTYLHWYQQKPGQAPRLLIYKVSNRFPGVPDRFSGSGSGTDFTLKISRVEAEDVGVYYCAYGTSVPFTFGQGTKLEIK
For B15, in assay [2], the fold change of affinity for CD3 is 0 fold.

B16: H183/L072 VL H34W (antibody, name in Kabat numbering, V domains shown)
VH: QVQLVESGGGLVQPGRSLRLSCAASGFTFSNAWMHWVRQAPGKGLEWVAQIKDKGNAYAAYYAPSVKGRFTISRDDSKNSIYLQMNSLKTEDTAVYYCHYVHYASASTVLPAFGVDAWGQGTTVTVSS
VL: DIVMTQSPLSLPVTPGEPASISCQASQELVHMNRNTYLWWYQQKPGQAPRLLIYKVSNRFPGVPDRFSGSGSGTDFTLKISRVEAEDVGVYYCAQGTSVPFTFGQGTKLEIK
In the case of B16, the fold change of affinity (in assay [1]; with Human CD137 ECD (human)) was 0 fold in each case.

B17: H183/L072 VL A25F (antibody, name in Kabat numbering, V domains shown)
VH: QVQLVESGGGLVQPGRSLRLSCAASGFTFSNAWMHWVRQAPGKGLEWVAQIKDKGNAYAAYYAPSVKGRFTISRDDSKNSIYLQMNSLKTEDTAVYYCHYVHYASASTVLPAFGVDAWGQGTTVTVSS
VL: DIVMTQSPLSLPVTPGEPASISCQFSQELVHMNRNTYLHWYQQKPGQAPRLLIYKVSNRFPGVPDRFSGSGSGTDFTLKISRVEAEDVGVYYCAQGTSVPFTFGQGTKLEIK
B17: the fold change of affinity (in assay [1]; with Human CD137 ECD (human)) was 0 fold in each case.

B18: H183/L072 with T92Y (Kabat) in VL dBBDu072L (antibody, name in Kabat numbering, V domains shown)
VH: QVQLVESGGGLVQPGRSLRLSCAASGFTFSNAWMHWVRQAPGKGLEWVAQIKDKGNAYAAYYAPSVKGRFTISRDDSKNSIYLQMNSLKTEDTAVYYCHYVHYASASTVLPAFGVDAWGQGTTVTVSS
VL: DIVMTQSPLSLPVTPGEPASISCQASQELVHMNRNTYLHWYQQKPGQAPRLLIYKVSNRFPGVPDRFSGSGSGTDFTLKISRVEAEDVGVYYCAQGYSVPFTFGQGTKLEIK
B18: the fold change of affinity for CD3 in assay [2] came to 0 fold.
